The chains are these.
B1: FIXa-Y155F/T343R/R403E/E410N (protein)
chain 1: YNSGKLEEFVQGNLERECMEEKCSFEEAREVFENTERTTEFWKQYVDGDQCESNPCLNGGSCKDDINSYECWCPFGFEGKNCELDVTCNIKNGRCEQFCKNSADNKVVCSCTEGYRLAENQKSCEPAVPFPCGRVSVSQTSKLTR
chain 2: VVGGEDAKPGQFPWQVVLNGKVDAFCGGSIVNEKWIVTAAHCVETGVKITVVAGEHNIEETEHTEQKRNVIRIIPHHNYNAAINKYNHDIALLELDEPLVLNSYVTPICIADKEYTNIFLKFGSGYVSGWGRVFHKGRSALVLQYLRVPLVDRATCLRSTKFRIYNNMFCAGFHEGGRDSCQGDSGGPHVTEVEGTSFLTGIISWGEECAMKGKYGIYTKVSEYVNWIKNKTKLT
B2: FIXa Y155F/K228N/K247N/N249S (protein)
chain 1: B1 chain 1
chain 2: B1 chain 2 with K48N, K67N, N69S, R163T, E223R, N230E
B3: FIXa D104N/K106S/K228N/K247N/N249S/R318Y/R338E/R403E/E410N (protein)
chain 1: B1 chain 1 with D104N, K106S
chain 2: B1 chain 2 with K48N, K67N, N69S, R138Y, R158E, R163T
B4: FIXa-K247N/N249S/R318Y/R338E/R403E (protein)
chain 1: B1 chain 1
chain 2: B1 chain 2 with K67N, N69S, R138Y, R158E, R163T, N230E
B5: FIXa-K228N/K247N/N249S/R318Y/R338E/T343R/R403E/E410N (protein)
chain 1: B1 chain 1
chain 2: B1 chain 2 with K48N, K67N, N69S, R138Y, R158E
B6: FIXa-K247N/N249S/R318Y/R338E/T343R (protein)
chain 1: B1 chain 1
chain 2: B1 chain 2 with K67N, N69S, R138Y, R158E, E223R, N230E
B7: FIXa-Y155F/R318Y/T343R/E410N (protein)
chain 1: B1 chain 1
chain 2: B1 chain 2 with R138Y, E223R
B8: FIXa-R318Y/T343R/E410N (protein)
chain 1: B1 chain 1
chain 2: B1 chain 2 with R138Y, E223R
B9: FIXa-K247N/N249S/R318Y/R338E/T343R/R403E/E410N (protein)
chain 1: B1 chain 1
chain 2: B1 chain 2 with K67N, N69S, R138Y, R158E
B10: FIXa-Y155F/K247N/N249S/R318Y/R338E/T343R (protein)
chain 1: B1 chain 1
chain 2: B1 chain 2 with K67N, N69S, R138Y, R158E, E223R, N230E
B11: FIXa-K228N/R318Y/R338E/T343R/R403E/E410N (protein)
chain 1: B1 chain 1
chain 2: B1 chain 2 with K48N, R138Y, R158E
B12: FIXa-Y155F/K228N/K247N/N249S/R318Y/R338E/T343R/R403E/E410N (protein)
chain 1: B1 chain 1
chain 2: B1 chain 2 with K48N, K67N, N69S, R138Y, R158E
B13: FIXa-Y155F/K228N/I251S/R318Y/R338E/R403E/E410N (protein)
chain 1: B1 chain 1
chain 2: B1 chain 2 with K48N, I71S, R138Y, R158E, R163T
B14: FIXa-K228N/K247N/N249S/R318Y/T343R/R403E/E410N (protein)
chain 1: B1 chain 1
chain 2: B1 chain 2 with K48N, K67N, N69S, R138Y
B15: FIXa-Y155F/K247N/N249S/T343R/E410N (protein)
chain 1: B1 chain 1
chain 2: B1 chain 2 with K67N, N69S, E223R
B16: FIXa-K228N/K247N/N249S/R318Y/R338E/T343R/R403E (protein)
chain 1: B1 chain 1
chain 2: B1 chain 2 with K48N, K67N, N69S, R138Y, R158E, N230E
B17: FIXa-K228N/I251S/R318Y/R338E/R403E/E410N (protein)
chain 1: B1 chain 1
chain 2: B1 chain 2 with K48N, I71S, R138Y, R158E, R163T
B18: FIXa-Y155F/K247N/N249S/R318Y/R338E/R403E (protein)
chain 1: B1 chain 1
chain 2: B1 chain 2 with K67N, N69S, R138Y, R158E, R163T, N230E
B19: FIXa-Y155F/R338E/T343R/R403E/E410N (protein)
chain 1: B1 chain 1
chain 2: B1 chain 2 with R158E
B20: FIXa-Y155F/R338E/T343R/E410N (protein)
chain 1: B1 chain 1
chain 2: B1 chain 2 with R158E, E223R
B21: FIXa-K228N/K247N/N249S/R318Y/R338E/T343R/E410N (protein)
chain 1: B1 chain 1
chain 2: B1 chain 2 with K48N, K67N, N69S, R138Y, R158E, E223R
B22: FIXa-Y155F/N260S/R318Y/R338E/T343R/R403E/E410N (protein)
chain 1: B1 chain 1
chain 2: B1 chain 2 with N80S, R138Y, R158E
B23: FIXa-Y155F/K247N/N249S/R318Y/R338E/T343R/R403E/E410N (protein)
chain 1: B1 chain 1
chain 2: B1 chain 2 with K67N, N69S, R138Y, R158E
B24: FIXa-N260S/R318Y/R338E/T343R/R403E/E410N (protein)
chain 1: B1 chain 1
chain 2: B1 chain 2 with N80S, R138Y, R158E
B25: FIXa-R318Y/R338E/T343R/E410N (protein)
chain 1: B1 chain 1
chain 2: B1 chain 2 with R138Y, R158E, E223R
B26: FIXa K228N/K247N/N249S/R318Y/R338E/R403E/E410N (protein)
chain 1: B1 chain 1
chain 2: B1 chain 2 with K48N, K67N, N69S, R138Y, R158E, R163T
B27: FIXa-Y155F/K247N/N249S/R403E/E410N (protein)
chain 1: B1 chain 1
chain 2: B1 chain 2 with K67N, N69S, R163T

Where a chain is given by its changes, count along the chain named. Names and notes keep the numbering of the source.

Sequence of Factor X (FX), P00742 (P00742 whole entry, looked up): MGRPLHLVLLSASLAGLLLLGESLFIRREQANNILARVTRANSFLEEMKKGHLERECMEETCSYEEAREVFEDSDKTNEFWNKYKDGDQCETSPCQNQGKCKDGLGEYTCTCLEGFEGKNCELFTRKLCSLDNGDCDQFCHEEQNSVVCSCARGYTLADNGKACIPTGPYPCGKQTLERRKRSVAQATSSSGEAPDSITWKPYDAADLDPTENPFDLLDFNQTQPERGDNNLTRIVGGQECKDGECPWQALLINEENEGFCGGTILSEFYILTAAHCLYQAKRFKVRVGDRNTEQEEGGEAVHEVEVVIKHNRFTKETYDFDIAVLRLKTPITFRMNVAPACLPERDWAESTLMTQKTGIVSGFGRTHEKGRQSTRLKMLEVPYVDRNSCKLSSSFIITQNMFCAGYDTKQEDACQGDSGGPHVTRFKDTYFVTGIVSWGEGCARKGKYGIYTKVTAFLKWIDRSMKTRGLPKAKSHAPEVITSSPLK

One data set concerns the target Factor X (FX), P00742.
On to B1, for which the “% of WT kcat/KM” value is 321%; the kcat (s^-1) of FX activation by FIXa variant in the Xase complex (FVIIIa, PC/PS vesicles, Ca2+), fluorogenic FXa read-out amounted to 6.6 s⁻¹; the kcat/KM for FX activation (Xase: FVIIIa, PC/PS vesicles, Ca2+) was 1.5e+08 M⁻¹ s⁻¹.
Consider B2, for which the KM (FX activation by FIXa in the Xase complex with FVIIIa, PC/PS vesicles and Ca2+) is 79.2 nM.
The same measure, in the same setting: the result for B3 reads 53.3 nM.
As for B4, the kcat of FX activation by FIXa (Xase complex with FVIIIa, PC/PS vesicles, Ca2+) is 10.5 s⁻¹.
As usually defined, the KM is the substrate concentration at which the rate is half of its maximum. B5: the Michaelis constant (KM) came out at 25.1 nM.
With B6, the “% of WT kcat/KM” value was found to be 840%; the kcat (s^-1) of FX activation by FIXa variant in the Xase complex (FVIIIa, PC/PS vesicles, Ca2+), fluorogenic FXa read-out came out at 8 s⁻¹; the kcat/KM for FX activation (Xase: FVIIIa, PC/PS vesicles, Ca2+) stood at 3.9e+08 M⁻¹ s⁻¹.
As for B7, the “% of WT kcat/KM” value was found to be 326%; the kcat (s^-1) of FX activation by FIXa variant in the Xase complex (FVIIIa, PC/PS vesicles, Ca2+), fluorogenic FXa read-out is 5 s⁻¹; the kcat/KM for FX activation (Xase: FVIIIa, PC/PS vesicles, Ca2+) turned out to be 1.5e+08 M⁻¹ s⁻¹.
B8: the kcat (s^-1) of FX activation by FIXa variant in the Xase complex (FVIIIa, PC/PS vesicles, Ca2+), fluorogenic FXa read-out stood at 3.2 s⁻¹.
In the case of B9, the KM came to 29.2 nM and the “catalytic activity (kcat/KM) for activation of FX” value is listed as “improved activity when combined with other mutations”.
As for B10, the “% of WT kcat/KM” value stood at 772%; the kcat (s^-1) of FX activation by FIXa variant in the Xase complex (FVIIIa, PC/PS vesicles, Ca2+), fluorogenic FXa read-out is 8.5 s⁻¹; the kcat/KM for FX activation (Xase: FVIIIa, PC/PS vesicles, Ca2+) stood at 3.6e+08 M⁻¹ s⁻¹.
With B11, the kcat (s^-1) of FX activation by FIXa variant in the Xase complex (FVIIIa, PC/PS vesicles, Ca2+), fluorogenic FXa read-out came out at 10.5 s⁻¹.
Take B12: the KM is 36.8 nM.
The same measure, in the same setting: for B13 the value was 39.3 nM.
As to B14, the kcat (s^-1) of FX activation by FIXa variant in the Xase complex (FVIIIa, PC/PS vesicles, Ca2+), fluorogenic FXa read-out was 8.1 s⁻¹.
As to B15, the “% of WT kcat/KM” value is 599%; the kcat (s^-1) of FX activation by FIXa variant in the Xase complex (FVIIIa, PC/PS vesicles, Ca2+), fluorogenic FXa read-out is 7.9 s⁻¹; the kcat/KM for FX activation (Xase: FVIIIa, PC/PS vesicles, Ca2+) was 2.8e+08 M⁻¹ s⁻¹.
As for B16, the kcat (s^-1) of FX activation by FIXa variant in the Xase complex (FVIIIa, PC/PS vesicles, Ca2+), fluorogenic FXa read-out was 10.9 s⁻¹.
For B17, the KM came out at 36.4 nM.
Take B18: the kcat of FX activation by FIXa (Xase complex with FVIIIa, PC/PS vesicles, Ca2+) amounted to 5.7 s⁻¹.
For B19, the KM is 25.9 nM.
With B20, the “% of WT kcat/KM” value came to 761%; the kcat (s^-1) of FX activation by FIXa variant in the Xase complex (FVIIIa, PC/PS vesicles, Ca2+), fluorogenic FXa read-out turned out to be 6 s⁻¹; the kcat/KM for FX activation (Xase: FVIIIa, PC/PS vesicles, Ca2+) is 3.5e+08 M⁻¹ s⁻¹.
B21: the kcat (s^-1) of FX activation by FIXa variant in the Xase complex (FVIIIa, PC/PS vesicles, Ca2+), fluorogenic FXa read-out is 4.7 s⁻¹.
On to B22, for which the KM was 40.2 nM.
Consider B23, for which the KM amounted to 25.7 nM.
On to B24, for which the KM was determined as 32.1 nM.
With B25, the “catalytic activity (kcat/KM) for activation of FX” value was “displayed some of the greatest increases in catalytic activity”.
Turning to B26, the KM (FX activation by FIXa in the Xase complex with FVIIIa, PC/PS vesicles and Ca2+) was found to be 49.7 nM.
In the case of B27, the “% of WT kcat/KM” value came to 53%; the kcat (s^-1) of FX activation by FIXa variant in the Xase complex (FVIIIa, PC/PS vesicles, Ca2+), fluorogenic FXa read-out worked out at 2.7 s⁻¹; the kcat/KM for FX activation (Xase: FVIIIa, PC/PS vesicles, Ca2+) stood at 2.4e+07 M⁻¹ s⁻¹.

The target in the next data set is Factor X, P00742.
Sequence of Factor X, P00742 (P00742 whole entry, looked up): as above
As for B1, the KM is 44.6 nM.
One may read the kcat/KM as the second-order rate constant that governs catalysis at low substrate concentration. Regarding B2, the “% of WT kcat/KM” value came to 115% and the specificity constant (kcat/KM) worked out at 5.3e+07 M⁻¹ s⁻¹.
Regarding B3, the “% of WT kcat/KM” value amounted to 239% and the kcat/KM came to 1.1e+08 M⁻¹ s⁻¹.
For B4, the “% of WT kcat/KM” value amounted to 496% and the kcat/KM came to 2.3e+08 M⁻¹ s⁻¹.
One may read the kcat as the number of substrate molecules converted per active site and unit of time at saturation. As to B5, the “% of WT kcat/KM” value is recorded as 880%, the kcat stood at 9.9 s⁻¹ and the kcat/KM was determined as 4.1e+08 M⁻¹ s⁻¹.
As to B6, the KM was 24.4 nM.
B7: the KM turned out to be 40.3 nM.
Turning to B8, the KM was found to be 52.3 nM.
In the case of B9, the “% of WT kcat/KM” value came out at 824%, the kcat came to 10.6 s⁻¹ and the kcat/KM worked out at 3.8e+08 M⁻¹ s⁻¹.
Consider B10, for which the KM turned out to be 27.6 nM.
With B11, the KM worked out at 40.3 nM.
B12: the “% of WT kcat/KM” value is reported as 646%, the kcat was found to be 9.4 s⁻¹ and the kcat/KM was determined as 3e+08 M⁻¹ s⁻¹.
For B13 the same measures were 296%, 5.3 s⁻¹ and 1.4e+08 M⁻¹ s⁻¹.
For the protein B14, the Michaelis constant (KM) was 125 nM.
On the same count and under the same terms, the result for B15 reads 34.4 nM; that for B16, 44.4 nM.
As for B17, the “% of WT kcat/KM” value turned out to be 463%, the turnover number (kcat) stood at 7.5 s⁻¹ and the kcat/KM is 2.1e+08 M⁻¹ s⁻¹.
As for B18, the “% of WT kcat/KM” value stood at 206% and the kcat/KM is 9.5e+07 M⁻¹ s⁻¹.
Take B19: the “% of WT kcat/KM” value came to 524%, the kcat was found to be 5.7 s⁻¹ and the kcat/KM came to 2.4e+08 M⁻¹ s⁻¹.
As to B20, the KM was 22.4 nM.
Take B21: the KM was 38.1 nM.
For B22, the “% of WT kcat/KM” value is listed as 335%, the catalytic constant (kcat) is 5.8 s⁻¹ and the kcat/KM was 1.5e+08 M⁻¹ s⁻¹.
Consider B23, for which the “% of WT kcat/KM” value was 864%, the kcat worked out at 9.7 s⁻¹ and the kcat/KM came out at 4e+08 M⁻¹ s⁻¹.
For B24, the “% of WT kcat/KM” value worked out at 638%, the kcat amounted to 8.9 s⁻¹ and the kcat/KM turned out to be 2.9e+08 M⁻¹ s⁻¹.
As to B25, the “% of WT kcat/KM” value was 728%, the kcat worked out at 4.9 s⁻¹ and the kcat/KM worked out at 3.4e+08 M⁻¹ s⁻¹.
With B26, the “% of WT kcat/KM” value is 352% and the kcat/KM worked out at 1.6e+08 M⁻¹ s⁻¹.
In the case of B27, the KM worked out at 131 nM.

For the origin of these results see patent US20210238260.
